The text below walks through data of US20220089722A1 (NANTONG YICHEN BIOPHARMA, published 2022).

For experiment [1], the target named is T1, EGFR on F98-EGFR cells (UniProt P00533 25-1210, limits assumed).
T1 construct: whole, on cells
Nature of the experiment: flow cytometry on F98-EGFR cells; protein purified on CH1 resin.

In experiment [2] the target is T2, CD3 on T cells (Jurkat T cells; PBMC-T cells).
T2 construct: whole, on cells; the target is inferred from the anti-CD3 arm of the constructs
Kind of experiment: flow cytometry on Jurkat T cells; protein purified on CH1 resin.

Experiment [3] addresses T1, EGFR on F98-EGFR cells. Kind of experiment: flow cytometry on F98-EGFR cells; protein purified on Protein A resin.
The target in experiment [4] is T2, CD3 on T cells (Jurkat T cells; PBMC-T …). Nature of the experiment: flow cytometry on Jurkat T cells; protein purified on Protein A resin.
For experiment [5], the target named is T1, EGFR on F98-EGFR cells. Nature of the experiment: cell-based or functional assay.
Experiment [6] addresses T1, EGFR on F98-EGFR cells. Kind of experiment: flow cytometry on F98-EGFR cells. The procedure:
F98-EGFR cells (a DMEM containing 10% FBS, 200 μg/ml G418) were cultured. 2×10⁵ cells were washed by precooled PBS for 3 times, and blocked by 2% FBS (soluble to PBS). IgFD-8, IgFD-9, IgFD-10, IgFD-11, IgFD-18, IgFD-19, IgFD-25, IgFD-26 or IgFD-31 (aEGFR expressed in a laboratory as a control) was added and incubated for 2 h at 4° C. (cells were gently mixed during incubation), unbounded antibodies were washed by 2% FBS (soluble to PBS), and then the remaining cells were incubated by FITC anti-human IgGFc(KPL, Inc., MD) for 1 h at 4° C., and washed by 2% FBS (soluble to PBS) for flow cytometry analysis. As shown in FIG. 7 and Table 4, the anti-CD3/anti-EGFR heterodimers in different forms of fusion could bind to EGFR on F98-EGFR cells, and there was no significant difference in the binding capacity of different heterodimers to F98-EGFR.

T2 sequence (P07766 23-207): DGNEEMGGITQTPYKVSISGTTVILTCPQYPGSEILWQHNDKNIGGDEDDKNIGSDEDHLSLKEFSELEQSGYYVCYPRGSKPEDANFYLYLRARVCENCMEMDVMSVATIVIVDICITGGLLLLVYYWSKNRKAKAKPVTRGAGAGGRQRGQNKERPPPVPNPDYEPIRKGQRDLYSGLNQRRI

B1: IgFD-32(anti-CD3/EGFR) (bispecific antibody, human IgG1, kappa, lambda)
chain 1: EVQLVESGGGLVQPGGSLRLSCAASGFTFNTYAMNWVRQAPGKGLEWVARIRSKYNNYATYYADSVKDRFTISRDDSKNTLYLQMNSLRAEDTAVYYCVRHGNFGNSYVSWFAYWGQGTLVTVSSASTKGPQVQLQESGPGLVKPSETLSLTCTVSGGSVSSGDYYWTWIRQSPGKGLEWIGHIYYSGNTNYNPSLKSRLTISIDTSKTQFSLKLSSVTAADTAIYYCVRDRVTGAFDIWGQGTMVTVSSASTKGPSVFPLAPSSKSTSGGTAALGCLVKDYFPEPVTVSWNSGALTSGVHTFPAVLQSSGLYSLSSVVTVPSSSLGTQTYICNVNHKPSNTKVDKKVEPKSCDKTHTCPPCPAPPVAGPSVFLFPPKPKDTLMISRTPEVTCVVVDVSHEDPEVKFNWYVDGVEVHNAKTKPREEQYNSTYRVVSVLTVLHQDWLNGKEYKCKVSNKGLPSSIEKTISKAKGQPREPQVYTLPPCRDELTKNQVSLWCLVKGFYPSDIAVEWESNGQPENNYKTTPPVLDSDGSFFLYSKLTVDKSRWQQGNVFSCSVMHEALHNHYTQKSLSLSPGK
chain 2: not shown
notes: (ProA)/(CH1) = purification resin; also called IgFD-32(ProA); IgFD-32(CH1)
B1: the Kd was 12.8 nM in the experiment with EGFR on F98-EGFR cells [1], 8.45 nM in experiment [2], 19.6 nM with EGFR on F98-EGFR cells [3] and 7.13 nM in experiment [4].

B2: IgFD-28(anti-CD3/EGFR) (bispecific antibody, human IgG1, kappa)
chain 1: EVQLVESGGGLVQPGGSLRLSCAASGFTFNTYAMNWVRQAPGKGLEWVARIRSKYNNYATYYADSVKDRFTISRDDSKNTLYLQMNSLRAEDTAVYYCVRHGNFGNSYVSWFAYWGQGTLVTVSSASTKGPSVFPLAPSSKSTSGGTAALGCLVKDYFPEPVTVSWNSGALTSGVHTFPAVLQSSGLYSLSSVVTVPSSSLGTQTYICNVNHKPSNTKVDKKVEPKSCDKTHTCPPCPAPPVAGPSVFLFPPKPKDTLMISRTPEVTCVVVDVSHEDPEVKFNWYVDGVEVHNAKTKPREEQYNSTYRVVSVLTVLHQDWLNGKEYKCKVSNKGLPSSIEKTISKAKGQPREPQVYTLPPCRDELTKNQVSLWCLVKGFYPSDIAVEWESNGQPENNYKTTPPVLDSDGSFFLYSKLTVDKSRWQQGNVFSCSVMHEALHNHYTQKSLSLSPGK
chain 2: QAVVTQEPSLTVSPGGTVTLTCRSSTGAVTTSNYANWVQQKPDHLFRGLIGGTNKRAPGTPARFSGSLLGDKAALTISGAQPEDEAEYYCALWYSNLWVFGGGTKLEIKRTVAAPSVFIFPPSDEQLKSGTASVVCLLNNFYPREAKVQWKVDNALQSGNSQESVTEQDSKDSTYSLSSTLTLSKADYEKHKVYACEVTHQGLSSPVTKSFNRGECDKTHTCPPCPAPPVAGPSVFLFPPKPKDTLMISRTPEVTCVVVDVSHEDPEVKFNWYVDGVEVHNAKTKPREEQYNSTYRVVSVLTVLHQDWLNGKEYKCKVSNKGLPSSIEKTISKAKGQPREPQVCTLPPSRDELTKNQVSLSCAVKGFYPSDIAVEWESNGQPENNYKTTPPVLDSDGSFFLVSKLTVDKSRWQQGNVFSCSVMHEALHNHYTQKSLSLSPGKGGSGGSGGGGSGGGGSDIQMTQSPSSLSASVGDRVTITCQASQDISNYLNWYQQKPGKAPKLLIYDASNLETGVPSRFSGSGSGTDFTFTISSLQPEDIATYFCQHFDHLPLAFGGGTKVEIKGGGGSGGGGSGGGGSQVQLQESGPGLVKPSETLSLTCTVSGGSVSSGDYYWTWIRQSPGKGLEWIGHIYYSGNTNYNPSLKSRLTISIDTSKTQFSLKLSSVTAADTAIYYCVRDRVTGAFDIWGQGTMVTVSS
notes: also called IgFD-28(ProA); IgFD-28(CH1)
Take B2: the “Promotion for the specific killing effect of PBMCs on target cells by heterodimers (EC50, pM); F98-EGFR cells, LDH assay; IgFD-28(CH1)” value in the experiment with EGFR on F98-EGFR cells [5] came out at 11.4 pM. In addition, the “Promotion for the specific killing effect of PBMCs on target cells by heterodimers (EC50, pM); F98-EGFR cells, LDH assay; IgFD-28(ProA)” value with EGFR on F98-EGFR cells [5] amounted to 14.7 pM. Moreover, the Kd with EGFR on F98-EGFR cells [1] was determined as 2.86 nM; in experiment [2] it was 10.4 nM; with EGFR on F98-EGFR cells [3] it was 3.81 nM; in experiment [4] it was 12.2 nM.

B3: IgFD-29(anti-CD3/EGFR) (bispecific antibody, human IgG1, kappa)
chain 1: EVQLVESGGGLVQPGGSLRLSCAASGFTFNTYAMNWVRQAPGKGLEWVARIRSKYNNYATYYADSVKDRFTISRDDSKNTLYLQMNSLRAEDTAVYYCVRHGNFGNSYVSWFAYWGQGTLVTVSSASTKGPSVFPLAPSSKSTSGGTAALGCLVKDYFPEPVTVSWNSGALTSGVHTFPAVLQSSGLYSLSSVVTVPSSSLGTQTYICNVNHKPSNTKVDKKVEPKSCDKTHTCPPCPAPPVAGPSVFLFPPKPKDTLMISRTPEVTCVVVDVSHEDPEVKFNWYVDGVEVHNAKTKPREEQYNSTYRVVSVLTVLHQDWLNGKEYKCKVSNKGLPSSIEKTISKAKGQPREPQVYTLPPCRDELTKNQVSLWCLVKGFYPSDIAVEWESNGQPENNYKTTPPVLDSDGSFFLYSKLTVDKSRWQQGNVFSCSVMHEALHNHYTQKSLSLSPGKGGSGGSGGGGSGGGGSQVQLQESGPGLVKPSETLSLTCTVSGGSVSSGDYYWTWIRQSPGKGLEWIGHIYYSGNTNYNPSLKSRLTISIDTSKTQFSLKLSSVTAADTAIYYCVRDRVTGAFDIWGQGTMVTVSS
chain 2: QAVVTQEPSLTVSPGGTVTLTCRSSTGAVTTSNYANWVQQKPDHLFRGLIGGTNKRAPGTPARFSGSLLGDKAALTISGAQPEDEAEYYCALWYSNLWVFGGGTKLTVLKRTVAAPSVFIFPPSDEQLKSGTASVVCLLNNFYPREAKVQWKVDNALQSGNSQESVTEQDSKDSTYSLSSTLTLSKADYEKHKVYACEVTHQGLSSPVTKSFNRGECDKTHTCPPCPAPPVAGPSVFLFPPKPKDTLMISRTPEVTCVVVDVSHEDPEVKFNWYVDGVEVHNAKTKPREEQYNSTYRVVSVLTVLHQDWLNGKEYKCKVSNKGLPSSIEKTISKAKGQPREPQVCTLPPSRDELTKNQVSLSCAVKGFYPSDIAVEWESNGQPENNYKTTPPVLDSDGSFFLVSKLTVDKSRWQQGNVFSCSVMHEALHNHYTQKSLSLSPGKGGSGGSGGGGSGGGGSDIQMTQSPSSLSASVGDRVTITCQASQDISNYLNWYQQKPGKAPKLLIYDASNLETGVPSRFSGSGSGTDFTFTISSLQPEDIATYFCQHFDHLPLAFGGGTKVEIK
notes: (ProA)/(CH1) = purification resin; also called IgFD-29(ProA); IgFD-29(CH1)
Regarding B3, the “Promotion for the specific killing effect of PBMCs on target cells by heterodimers (EC50, pM); F98-EGFR cells, LDH assay; IgFD-29(CH1)” value in the experiment with EGFR on F98-EGFR cells [5] stood at 338 pM. In the experiment with EGFR on F98-EGFR cells [5], the “Promotion for the specific killing effect of PBMCs on target cells by heterodimers (EC50, pM); F98-EGFR cells, LDH assay; IgFD-29(ProA)” value was 293 pM. Besides, the Kd in the experiment with EGFR on F98-EGFR cells [1] amounted to 78 nM; in experiment [2], 6.82 nM; with EGFR on F98-EGFR cells [3] it was 77.5 nM; in experiment [4], 7.42 nM.

B4: IgFD-33(anti-CD3/EGFR) (bispecific antibody, human IgG1, kappa)
chain 1: QVQLQESGPGLVKPSETLSLTCTVSGGSVSSGDYYWTWIRQSPGKGLEWIGHIYYSGNTNYNPSLKSRLTISIDTSKTQFSLKLSSVTAADTAIYYCVRDRVTGAFDIWGQGTMVTVSSASTKGPEVQLVESGGGLVQPGGSLRLSCAASGFTFNTYAMNWVRQAPGKGLEWVARIRSKYNNYATYYADSVKDRFTISRDDSKNTLYLQMNSLRAEDTAVYYCVRHGNFGNSYVSWFAYWGQGTLVTVSSASTKGPSVFPLAPSSKSTSGGTAALGCLVKDYFPEPVTVSWNSGALTSGVHTFPAVLQSSGLYSLSSVVTVPSSSLGTQTYICNVNHKPSNTKVDKKVEPKSCDKTHTCPPCPAPPVAGPSVFLFPPKPKDTLMISRTPEVTCVVVDVSHEDPEVKFNWYVDGVEVHNAKTKPREEQYNSTYRVVSVLTVLHQDWLNGKEYKCKVSNKGLPSSIEKTISKAKGQPREPQVYTLPPCRDELTKNQVSLWCLVKGFYPSDIAVEWESNGQPENNYKTTPPVLDSDGSFFLYSKLTVDKSRWQQGNVFSCSVMHEALHNHYTQKSLSLSPGK
chain 2: DIQMTQSPSSLSASVGDRVTITCQASQDISNYLNWYQQKPGKAPKLLIYDASNLETGVPSRFSGSGSGTDFTFTISSLQPEDIATYFCQHFDHLPLAFGGGTKVEIKTVAAPSVFIFPPQAVVTQEPSLTVSPGGTVTLTCRSSTGAVTTSNYANWVQQKPDHLFRGLIGGTNKRAPGTPARFSGSLLGDKAALTISGAQPEDEAEYYCALWYSNLWVFGGGTKLTVLKRTVAAPSVFIFPPSDEQLKSGTASVVCLLNNFYPREAKVQWKVDNALQSGNSQESVTEQDSKDSTYSLSSTLTLSKADYEKHKVYACEVTHQGLSSPVTKSFNRGECDKTHTCPPCPAPPVAGPSVFLFPPKPKDTLMISRTPEVTCVVVDVSHEDPEVKFNWYVDGVEVHNAKTKPREEQYNSTYRVVSVLTVLHQDWLNGKEYKCKVSNKGLPSSIEKTISKAKGQPREPQVCTLPPSRDELTKNQVSLSCAVKGFYPSDIAVEWESNGQPENNYKTTPPVLDSDGSFFLVSKLTVDKSRWQQGNVFSCSVMHEALHNHYTQKSLSLSPGK
notes: also called IgFD-33 (ProA)
For B4, the figures for the Kd (with EGFR on F98-EGFR cells [6]; in experiment [4]) were 2.42 nM and 50.7 nM, respectively.
